According to the supplement of paper PMC10567573:

B1: ELF3 (parent)
chain: LSKEYWDCLEGKKSKHAPRGTHLW
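Further: lentivirally expressed fusions sorted by FACS into six bins by GFP to DsRed ratio, PSI derived from sequencing read proportions per bin multiplied by bin number.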

Variants of: B1
Test: protein stability index of a GFP-peptide fusion (GPS, HEK-293T) (PSI 1-6); higher = more stable
Conditions: c terminus: a fixed tail appended
LSKEYWDCLEGKKSRHAPRGTHLW [K15R] gave a protein stability index of 3.44. LSKEYWDCLEGKKSGHAPRGTHLW [K15G] gave a protein stability index of 2.56. For LSKEYWDCLEGKKSIHAPRGTHLW [K15I], the protein stability index was 2.61. Variant LSKEYWDKLEGKKSKHAPRGTHLW [C8K] has a protein stability index of 3.73. LSKEYWDALEGKKSKHAPRGTHLW [C8A] showed a protein stability index of 3.1. With LSKEYWDILEGKKSKHAPRGTHLW [C8I] the protein stability index was 2.66. Variant LSKEYWDRLEGKKSKHAPRGTHLW [C8R] has a protein stability index of 3.2. Variant LSKEYWDWLEGKKSKHAPRGTHLW [C8W] has a protein stability index of 2.17. In the case of LSKEYWDMLEGKKSKHAPRGTHLW [C8M], the protein stability index is reported as 3.48. LSKEYWDPLEGKKSKHAPRGTHLW [C8P] gave a protein stability index of 2.04. LSKEYWDSLEGKKSKHAPRGTHLW [C8S] showed a protein stability index of 3.33. With LSKEYWDVLEGKKSKHAPRGTHLW [C8V] the protein stability index was 3.89. LSKEYWDGLEGKKSKHAPRGTHLW [C8G] showed a protein stability index of 3.2. In the case of LSKEYWDELEGKKSKHAPRGTHLW [C8E], the protein stability index is reported as 2.85. LSKEYWDQLEGKKSKHAPRGTHLW [C8Q] gave a protein stability index of 2.95. In the case of LSKEYWDHLEGKKSKHAPRGTHLW [C8H], the protein stability index is reported as 3.06. In the case of LSKEYWDLLEGKKSKHAPRGTHLW [C8L], the protein stability index is reported as 3.08. Work on LSKEYWDNLEGKKSKHAPRGTHLW [C8N] yielded a protein stability index of 3.07. Work on LSKEYWDYLEGKKSKHAPRGTHLW [C8Y] yielded a protein stability index of 2.74. Work on LSKEYWDFLEGKKSKHAPRGTHLW [C8F] yielded a protein stability index of 2.81. For LSKEYWDDLEGKKSKHAPRGTHLW [C8D], the protein stability index was 3.97. Work on LSKEYWDTLEGKKSKHAPRGTHLW [C8T] yielded a protein stability index of 3.26. Variant LSKEYWDCLCGKKSKHAPRGTHLW [E10C] has a protein stability index of 2.07. For LSKEYWDCLHGKKSKHAPRGTHLW [E10H], the protein stability index was 2.15. For LSKEYWDCLRGKKSKHAPRGTHLW [E10R], the protein stability index was 1.86. Variant LSKEYWDCLVGKKSKHAPRGTHLW [E10V] has a protein stability index of 2.28. In the case of LSKEYWDCLGGKKSKHAPRGTHLW [E10G], the protein stability index is reported as 2.37. LSKEYWDCLKGKKSKHAPRGTHLW [E10K] showed a protein stability index of 2.18. With LSKEYWDCLIGKKSKHAPRGTHLW [E10I] the protein stability index was 1.61. For LSKEYWDCLYGKKSKHAPRGTHLW [E10Y], the protein stability index was 1.63. Work on LSKEYWDCLTGKKSKHAPRGTHLW [E10T] yielded a protein stability index of 2.1. Variant LSKEYWDCLMGKKSKHAPRGTHLW [E10M] has a protein stability index of 2.18. LSKEYWDCLAGKKSKHAPRGTHLW [E10A] gave a protein stability index of 2.52. For LSKEYWDCLFGKKSKHAPRGTHLW [E10F], the protein stability index was 2.08. For LSKEYWDCLSGKKSKHAPRGTHLW [E10S], the protein stability index was 2.49. LSKEYWDCLWGKKSKHAPRGTHLW [E10W] gave a protein stability index of 2.08. For LSKEYWDCLLGKKSKHAPRGTHLW [E10L], the protein stability index was 1.82. LSKEYWDCLQGKKSKHAPRGTHLW [E10Q] showed a protein stability index of 2.73. In the case of LSKEYWDCLPGKKSKHAPRGTHLW [E10P], the protein stability index is reported as 2.16. LSKEYWDCLNGKKSKHAPRGTHLW [E10N] showed a protein stability index of 2.55. In the case of LSKEYWDCLDGKKSKHAPRGTHLW [E10D], the protein stability index is reported as 3.23. Work on LSKEYWDCLEGKTSKHAPRGTHLW [K13T] yielded a protein stability index of 2.37. With LSKEYWDCLEGKQSKHAPRGTHLW [K13Q] the protein stability index was 3.17. In the case of LSKEYWDCLEGKDSKHAPRGTHLW [K13D], the protein stability index is reported as 3.24. Variant LSKEYWDCLEGKRSKHAPRGTHLW [K13R] has a protein stability index of 2.87. With LSKEYWDCLEGKLSKHAPRGTHLW [K13L] the protein stability index was 2.64. Work on LSKEYWDCLEGKVSKHAPRGTHLW [K13V] yielded a protein stability index of 2.32. In the case of LSKEYWDCLEGKNSKHAPRGTHLW [K13N], the protein stability index is reported as 2.36. For LSKEYWDCLEGKISKHAPRGTHLW [K13I], the protein stability index was 2.22. LSKEYWDCLEGKPSKHAPRGTHLW [K13P] showed a protein stability index of 2.47. Variant LSKEYWDCLEGKWSKHAPRGTHLW [K13W] has a protein stability index of 2.92. LSKEYWDCLEGKGSKHAPRGTHLW [K13G] showed a protein stability index of 3.08. For LSKEYWDCLEGKFSKHAPRGTHLW [K13F], the protein stability index was 2.74. With LSKEYWDCLEGKESKHAPRGTHLW [K13E] the protein stability index was 3.52. LSKEYWDCLEGKASKHAPRGTHLW [K13A] gave a protein stability index of 2.76. With LSKEYWDCLEGKYSKHAPRGTHLW [K13Y] the protein stability index was 2.82. LSKEYWDCLEGKHSKHAPRGTHLW [K13H] showed a protein stability index of 2.87. LSKEYWDCLEGKMSKHAPRGTHLW [K13M] showed a protein stability index of 2.3. With LSKEYWDCLEGKCSKHAPRGTHLW [K13C] the protein stability index was 2.24. Variant LSKEYWDCLEGKKSKHDPRGTHLW [A17D] has a protein stability index of 2.69. LSKEYWDCLEGKKSKHHPRGTHLW [A17H] gave a protein stability index of 2.5. Work on LSKEYWDCLEGKKSKHPPRGTHLW [A17P] yielded a protein stability index of 3.21. Work on LSKEYWDCLEGKKSKHNPRGTHLW [A17N] yielded a protein stability index of 2.99. LSKEYWDCLEGKKSKHEPRGTHLW [A17E] showed a protein stability index of 3.58. With LSKEYWDCLEGKKSKHQPRGTHLW [A17Q] the protein stability index was 3.4. In the case of LSKEYWDCLEGKKSKHTPRGTHLW [A17T], the protein stability index is reported as 2.86. In the case of LSKEYWDCLEGKKSKHSPRGTHLW [A17S], the protein stability index is reported as 3.12. Work on LSKEYWDCLEGKKSKHLPRGTHLW [A17L] yielded a protein stability index of 2.45. LSKEYWDCLEGKKSKHGPRGTHLW [A17G] gave a protein stability index of 3.65. LSKEYWDCLEGKKSKHMPRGTHLW [A17M] gave a protein stability index of 3.06. LSKEYWDCLEGKKSKHIPRGTHLW [A17I] gave a protein stability index of 3.06. With LSKEYWDCLEGKKSKHFPRGTHLW [A17F] the protein stability index was 2.78. For LSKEYWDCLEGKKSKHRPRGTHLW [A17R], the protein stability index was 2.38. In the case of LSKEYWDCLEGKKSKHCPRGTHLW [A17C], the protein stability index is reported as 3.33. LSKEYWDCLEGKKSKHKPRGTHLW [A17K] gave a protein stability index of 2.86. Work on LSKEYWDCIEGKKSKHAPRGTHLW [L9I] yielded a protein stability index of 3.04. Variant LSKEYWDCYEGKKSKHAPRGTHLW [L9Y] has a protein stability index of 2.84. With LSKEYWDCEEGKKSKHAPRGTHLW [L9E] the protein stability index was 3.46. LSKEYWDCVEGKKSKHAPRGTHLW [L9V] showed a protein stability index of 3.83. In the case of LSKEYWDCCEGKKSKHAPRGTHLW [L9C], the protein stability index is reported as 3.3. In the case of LSKEYWDCSEGKKSKHAPRGTHLW [L9S], the protein stability index is reported as 3.31. LSKEYWDCREGKKSKHAPRGTHLW [L9R] gave a protein stability index of 2.89. For LSKEYWDCGEGKKSKHAPRGTHLW [L9G], the protein stability index was 3.65. In the case of LSKEYWDCFEGKKSKHAPRGTHLW [L9F], the protein stability index is reported as 2.6. LSKEYWDCMEGKKSKHAPRGTHLW [L9M] showed a protein stability index of 3.42. With LSKEYWDCAEGKKSKHAPRGTHLW [L9A] the protein stability index was 3.38. For LSKEYWDCQEGKKSKHAPRGTHLW [L9Q], the protein stability index was 3.71. Work on LSKEYWDCPEGKKSKHAPRGTHLW [L9P] yielded a protein stability index of 3.44. LSKEYWDCHEGKKSKHAPRGTHLW [L9H] showed a protein stability index of 3.26. LSKEYWDCTEGKKSKHAPRGTHLW [L9T] showed a protein stability index of 2.93. LSKEYWDCDEGKKSKHAPRGTHLW [L9D] showed a protein stability index of 3.22. LSKEYWDCNEGKKSKHAPRGTHLW [L9N] showed a protein stability index of 3.81. LSKEYWDCKEGKKSKHAPRGTHLW [L9K] gave a protein stability index of 2.92. Work on LSKEYWDCWEGKKSKHAPRGTHLW [L9W] yielded a protein stability index of 2.27.
